In the nanobody polyreactivity screen of Harvey et al. (2022):

Assay: yeast display, Sf9 membrane polyspecificity reagent, FACS + sequencing; frameworks hold sequencing errors
Method in brief: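 Galactose induction of a Saccharomyces cerevisiae BJ5465 synthetic nanobody display library ran 36–48 hours. The cells were then stained for 1 hour at 4 °C with 10% biotinylated, detergent-solubilized Sf9 membrane reagent, pulled down on streptavidin microbeads and FACS-sorted into low and high (top ~1%) gates on expression and reagent-binding fluorescence. Labels for polyreactivity follow the gate of origin.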

| Sequence | polyreactivity (PSR sort gate) |
| --- | --- |
| QVQLVDSGGGLVQAGGSLRLSWAASGSTFVYNAMGWYRQAPGKEREFVAGISRSGGSTYYADSVKGRFTISRDNAKNTVYFQMNSLKPEDTAVYYCNARGGLPKYGYWGQGTQVTVSS | high polyreactivity |
| QVQLVDSGGGLVQAGGSLRLTCAASGIIFYYYAMGWYRQAPGKERELVAAITGTGSRTYYADSVKGRFTISRDNAKNTVYLQMNSLKPEDTAVYYCNARSFATGSKVPARGYWGQGTQVTVSS | high polyreactivity |
| QVQLVDSGGGLVQAGGSLRLTCAASGKIFVPNAMGWNRQAPGKERELVAAIRRGGSTNYADSVKGRFTISRDNAKNSVYLQMNSLKPEDTAVYYCAKSRVSFTDLVGYYWGQGTQVTVSS | low polyreactivity |
| QVQLVDSGGGLVQAGGSLRLTCAASGSTIYKNTMGWDRQGPGKERELVAAITRGGSTYYADSVKGRVTISRDNAKNTVYLQMNSLKPEDTAVYYCNTLTRHRYGYDYWGQGTQVTVSS | high polyreactivity |
| QVQLVDSGGGLVQAGGTLRLSCAASGRIFYRYAMGWYRQAPGKERELVASITRSGITHYADSVKGRFTISRDNAKNTVYLQMNSLKPEDTAVYYCKARRGSPAPYDYWGQGTQVTVSS | high polyreactivity |
| QVQLVDSGGGLVQAGGTLRLSCAASGSTLYFYAMGWYRLAPGKERELVAAITYIGGRTSYADSVKGRFTISRDNAKNTVYLQMNSLKPEDTAVYYCAAAPYGYRRYEYWGQGTQVTVSS | high polyreactivity |
| QVQLVDSGGGLVQAGVSLRLSCAASGSIFRGNAMGWYRQAPVKERELVAAINKSGGSTYYADSVKGRFTISRDNAKNTVYLQMNSLKQEDTAVYYCAAVYKRLQPYGYWGQGTQVTVSS | high polyreactivity |
| QVQLVDSGGGLVQAVGSLRLSCAASGRTFYANAMGWYRQAPGKERELVAAISSRSGTTHYADSVKGRFTISRDNAKNTVYLQMNSLKPEDTAVYYCNRQKWRLLTMGAHNRQAYDSWGQGTQVSVSS | low polyreactivity |
| QVQLVDSGGGLVQEGGSLRISCAASGFTFPRNAMGWYIQAPGKERELVAAINSGGGTNYADSVKGRFTISRDNAKNTVYLQMNSLKPEDTAVYYCAKDHGSFEMDYWGLGTQVTVSS | low polyreactivity |
| QVQLVDSGGGSVQAGGSLRLSCAASGSTFYENAMGWYRQAPGKERELVAAITWSGGRTYYADSVKGRFTISRDNAKNTVYLQMYSLKPEDTAVYYCNARERSRKFYYWGQGTQVTVSS | high polyreactivity |
| QVQLVDSGGVLFQAGVSLLISCYASGITFYSYALGRNRRAPGKDWELVASITKSSGRTYYADSVKGRFTISRDNAKTTVSLQMNSVKPEDTAVYYCKAYYVALPPNMDYWGQGTQVTVSS | high polyreactivity |
| QVQLVDSGGVLVQAGGSLRLSCAASGFTFRDYAMGWYRQAPGKERELVAAISRSGDSTYYADSVKGRFTISRDNAKNTVYLQMNSLKPEDTAVYYYAAKRRYTTYDYWGQGTQVTVSS | high polyreactivity |
| QVQLVDSGGYLVQAGGSLRLSCAASGTTSLFYAMGWYRQAPGKERELVAAISRTGSTHYADSVKGRFTIARANAKYTVYLQMNSLKAEDTAVYYCAAYYRYRSGRYYYWGQGTQVTVSS | high polyreactivity |
| QVQLVDSGRGLVQAGGSLRLSCAASGFTVGVNAMGWDRQAPGKERELVAAITRSGGTTYYADSVQGRFTISRDKAKNTVYLQMNSLKPEDTAVYYCNRRARSYADDYWGQGTQVTVSS | high polyreactivity |
| QVQLVDSGVGLVQAGGSLRLTCAASGITFYYYAMGWYRQAPGKERELVARISSGGSTNYSDSVNGRFTISRDNAKNTVYLQMISLKPEDTAVYYCAAVRHRAMDYWGQGTQVTVSS | low polyreactivity |
| QVQLVDSVGGLVQAGGTHRLSCAASGSIFEIYAMGWYRQAPGKERELVASITSSGGSTYYADSVKGRFTISRDYAKNTVYLQMNSLKPEDTAVYYCATDKRYGRTVRMDYWGQGTQVTVSS | low polyreactivity |
| QVQLVDSWGGLVQAGGSLRLSCAASGSIFYRKAMGCYRQAPGKERELFAAITRSDVRTYYADSVKGRFTISRDNAKNTVYLQMNSLKPEDTAVYYCAALEYGSYQHFGEDYWGQGSQVTVSS | low polyreactivity |
| QVQLVEAGGGFVQAGGSLRLSCAASGSIIVPYAMGWYRQPPGKESELVAAISSRGGRTYYADSVKGRFTISRENAMNSVYLQMNSLKPEDSAVYDCNKTGGSHIPRLEYWGQGTQVTVSS | low polyreactivity |
| QVQLVEAGGGLGQAGGSLRLSCAASGRILTPYARGWYRQAPGKERELVAANTSGGRTHYAHSVKGRFTMSRDNAKNTVYLQMNSLTPEDTAVYYCAARVRTGWWVRDDYWGQGTQVTLSS | high polyreactivity |
| QVQLVEAGGGLVQAGGRLRLSCAASGSIFRRNAMGWYRQAPGTERELVASISSSGGSTYYADSVKGRFTLSRDNAMNTVYLQMNSLKPEDTAVYYCNAYRIRPGTPYGNGYYYWGQGTQVTGSS | high polyreactivity |
| QVQLVEAGGGLVQAGGSLRISCAASGITFLSNAMGWYRQAPGKEMELVAVITIGGSTYYADSVKGRFTISRDNAKNTVFLQLNSLKPEDTAVYYCAVELVAVPDRRFNYWGQGTQVTVSS | low polyreactivity |
| QVQLVEAGGGLVQAGGSLRLSCAASGGIFSTYTMRWYRQAPGKERELVAAITTGNSTYYADSVKVRFTISRDNAKNTVYLQMNSLKPEDSAVYYCAAFADSRDYYRRLIHDGYDYWGQGTQVTVSS | low polyreactivity |

| Sequence | polyreactivity (PSR sort gate) |
| --- | --- |
| QVQLVEAGGGLVQAGGSLRLSCAASGITFGDNAMGWYIQAPGKDRELVAAITLSDVDTYADSVKGRFTISRDNSKNTVYLQMISLKPEDTAVYDCAADYDFFSLYLYDYWGQGTQVTVSS | low polyreactivity |
| QVQLVEAGGGLVQAGGSLRLSCAASGRIFRTYAMGWYRQAPGKESELVAAINISGDRTYYADSVKGRFTISRDHAKNTVYLQMNSLKPEDTAVYYCAAAGYRYWGAIYYWGQGTQVTVSS | high polyreactivity |
| QVQLVEAGGGLVQAGGSLRLSCAASGRTFKGYAMGWYRPAPGKERELVAAITKRGGSTYYADSVKGRFTISRDNAKNTVYLQMNSLKPEDTAVYYCNADKQGSRHGDDYWGQGTQVTVSS | high polyreactivity |
| QVQLVEAGGGLVQAGGSLRLSCAASGSIFAQNVRGWSRQAPGKERELVAAISYSGGTTYYADSVKGRFTISRDNAMNTVYLQMNSLKPEDTAVYDCAAEFGVYEYDYWGQGTQVTVSS | low polyreactivity |
| QVQLVEAGGGLVQAGGSLRLSCAASGSTFAGYAMGWYRQAPGKERELVATITYSGGSTYYADSVKGRFTISRDNAKNTVYLQMNSLKPEDTAVYYCAKKASYWWGYEYWGQGTQVTVSS | low polyreactivity |
| QVQLVEAGGGLVQAGGSLRLSCAASVSTLFFNAMGWYRQGTGKERELVAGITDGGNTNYADSVKGRFTISRDNAKNTVYIQMNSLKPEDTAVYYCATDGVNPFYAYDYWGQGTQVTVSS | low polyreactivity |
| QVQLVEAGGGLVQAGGSLRLSCAPSGFTFGSYARRCYRQAPGKERELVAAIRLSGGSTTYADSVKGRFTITRDNEKKTVYLQMNSLKAEDTAVYYCAARVHVGYYWTFYYWGQGTQVTVSS | high polyreactivity |
| QVQLVEAGGRLVQAAGSLRLSLAASAFNTTAMGWYRQAPGKDRELVAAITSDGDSTYYADSVKGRFTISRDNAQNTDYFQKNCVKPVDTAVYYCAADAVPTSVVYWGFYGMYWGQGTQVTVSS | low polyreactivity |
| QVQLVEAGRGLVQAGGSLRLSCAASGRTIDHYAMGWYRQAPGKERELVAAMSPTGGSTYYADSVKGRFTISRDNAKNSVYLQMNSLKPEDTAVYYCNARYYFYSATVDRYYHFYYWGQGTQVTVSS | high polyreactivity |
| QVQLVEKGGCLVQAGGSLSLSCAAYGRTFILNSMGCYRQAPWKEMELVAAISWSGGSTYYADSVKGRFTISRDNAKNTVYLQMNSLKPEDTAVYYCAAETYAYLFHTYDYWGQGTQVTVSS | low polyreactivity |
| QVQLVEKGGGLVQAGGSLRLSCAASGRTFQYYAMGWYRQAPGNERELVAAINQGGGRTYYADSVKGRFTISRDNAKNTVYLQMNSLKPEDTAVYYCAADGLSKFDYWGQGTQVTVSS | low polyreactivity |
| QVQLVEPGGGLVQAGGSLRLSCAASGSTFTLYAMGWYRQAPGKERELVATLTGSAGSTNYADSVKGRFTISRDNAKNTVYLQMNSLKPEDTAVYYCAKRVQQSTWYGYGIGYEYWGQGTQVTVSS | high polyreactivity |
| QVQLVEPGGGLVQAGGSLRLSCAASGSTFVEYDMGWYRQAPGKERELVAGINSGDRTNYADSVKGRFTISRDNEKNTVYLQMNSLKPEDTAVYYCAVDYRSYAYDYWGQGTQVSVSS | low polyreactivity |
| QVQLVESAAGLVQAGGSHRLSCAASGFTFDHYAMGWSRQEPGKESELVAAISKRGGTTYYADSVKGRFTISRDNAKNTVYLQTKSLKPEDTAVYYCNADVNNWEDDYYYWGQGTQVTVSS | high polyreactivity |
| QVQLVESAAGLVQAGGSLRLRCAASGRIFSDYAMGWYRQAPGKERELVATITSGDSTNYADSVKGRFTISGDNAKNTDYLQMNSLKPEDTAVYYCNADRFADYDYWGQGTQLTVSS | low polyreactivity |
| QVQLVESAAGLVQAGGSLRLSGAASGRIFRYNAMGGYRQAPGNERELVAAISSGGSTNYADSVKGRFTTSRDNAKNTVYLQMNSLKPEDTAVYYCNADSVHRYPGWGYDYWGLGTQVTVSS | low polyreactivity |
| QVQLVESAGGLDQAGGSLRLSCAASGSIFYIYAMGWYRQAPGKERELVATISGSGGSTHYADSVKGRFTISRDNAKNSVYLQKNSLKPEDTAVYYCAADVLPYGYYWGQGPQVTVSS | low polyreactivity |
| QVQLVESAGGLVQAAGSLRLSCAASGSIFSTNAMGWYRQAPGKERELVAAITYRGRTFYADSVKGRFTISRDNAKNTVYLQMNSLKPEDTAVYYCNAVGISWFGYLKAYVYWGKGTQVTVSS | high polyreactivity |
| QVQLVESAGGLVQAGASLRLSCDASGRIFPSNAMGWSRQAPGKERELVAAITSSGGSTYYADSVKGRFTISRDYAKNTVYLQMNSLKPEHTAVYYCPARFYSGPGGYTIYYWGQGTQVTVSS | high polyreactivity |
| QVQLVESAGGLVQAGASRRLSCAASGRTVSLYTMGWSRQSPGKESELVASITSSGSTSYADSVKGRFTISRDNAKNTVYLQMNSLKPEDTAVYYCNAAVSYPKYPYVSPGVPSYDYWGQGTQVTVSS | low polyreactivity |
| QVQLVESAGGLVQAGGILRLSCAASGSTFDSYGMGWYRQAPGKERELVASISVSGGGTYYADSVKGRFTISRDNAKNTVYLQMNSLKPEDTAVYYCNARYGNESQGWEDYWGQGTQVTVSS | low polyreactivity |
